Measurements reported in US20240317826A1, “COMPOSITIONS AND METHODS FOR TREATING AND/OR I[…] AGENT FOR TREATING HIV-1 INFECTIONS” (priority 2021, published 2024).

B1: INI1183-304: INI1 fragment aa 183-304 (Rpt1, linker, part of Rpt2), expressed as His6-SUMO fusion (protein)
chain: PEVLVPIRLDMEIDGQKLRDAFTWNMNEKLMTPEMFSEILCDDLDLNPLTFVPAIASAIRQQIESYPTDSILEDQSDQRVIIKLNIHVGNISLVDQFEWDMSEKENSPEKFALKLCSELGLG
modifications: left off: large carriers
notes: INI1 fragment aa 183-304 (Rpt1, linker, part of Rpt2), expressed as His6-SUMO fusion
B2: S6: INI1 fragment (aa 183-294) harboring the Rpt1 domain, linker region and a part of Rpt2 (protein, UniProt Q12824 183-294, looked up, fragment)
chain: PEVLVPIRLDMEIDGQKLRDAFTWNMNEKLMTPEMFSEILCDDLDLNPLTFVPAIASAIRQQIESYPTDSILEDQSDQRVIIKLNIHVGNISLVDQFEWDMSEKENSPEKFA

Tests used:
[1] = target: T1, IN-CTD (Human immunodeficiency virus type 1 group M subtype B, UniProt P04585); experiment: Alpha proximity assay, binding of His6-SUMO-INI1183-304 to GST-CTD; set-up: species or system HIV-1
T1 construct: pGEX3x-IN and pGST-IN-CTD(aa 201-288) were used as templates; made in house; host or cells: bacteria (E. coli)
Description: FIG. 16A-FIG. 16H show quantitative Alpha protein-protein interaction assay to determine the interaction of IN, CTD, and the mutants with INI1 and INI1183-304. […] A titration curve was generated with increasing concentrations of His6-SUMO-INI1183-304 with two different fixed concentration of GST-CTD and the interactions were detected as Alpha Score. The KD values were determined by nonlinear regression analysis using specific binding with Hill slope analysis in GraphPad Prism. Data from one representative experiment is depicted. FIG. 16B and FIG. 16C show effect of salt on the interactions of GST-CTD either with His6-SUMO-INI1183-304 or biotinylated(Bio)-TAR RNA (n=3 independent experiments). The interaction was tested using fixed concentrations of GST-CTD (0.75 μM) and increasing concentrations of His6-SUMO-INI1183-304 (or Bio-TAR RNA) in two different NaCl conditions (100 and 500 mM). […] The IC50 values were determined by fitting the data to a four-parameter dose-response curve using GraphPad prism. […]
AlphaScreen proximity assay to detect the protein-protein and protein-RNA interactions. […] The Alpha score readings were measured using Alpha-compatible Envision 2105 multi-plate reader (Perkin-Elmer). All the experiments related to this method were carried out 3 to 5 times and data were analyzed by using Graph Pad Prism 9 version 9.0.0 (GraphPad Software, CA). […]

[2] = test system: HIV-1 particle production; details: by binding to IN within GagPol; cited from earlier work

Molecule	KD for binding, IN-CTD/INI1183-304 [1]	inhibition of HIV-1 particle production [2]
B1	low nM	–
B2	–	trans-dominantly inhibits HIV-1 particle production
